Bridge positions count the residues as written; N and C are the ends. Ends that are not written are not given here.
B1: SPKR4NL1-2: chimeric protein: (SPKR)4 DNA-binding domain, α-helical linker, targeting domain with loops 1 and 2 of NGF (aa 17–67), His10 tag (protein)
chain: MGHHHHHHHHHHSSGHIEGRHMSPKRSPKRSPKRSPKRGGTYLSEDELKAAEAAFKRHNPTGSCSVSVWVGDKTTATDIKGKEVMVLGEVNINNSVFKQYFFETKCRDPNPVDSG
modifications: SPKR4NL1-2

Key:
[1] = system: PC12 (TrkA and p75^NTR positive) cells; assay: Gene delivery in vitro (pCAGluc luciferase reporter), PC12 cells; assay type: cell-based, rat
Protocol: A PC12 (rat pheochromocytoma) cell line was obtained from ATCC (American Type Culture Collection, Manassas, Va., USA) and cultured in RPMI-1640 medium supplemented with 10% fetal bovine serum (FBS) and 5% horse serum. PC12 cells are known to express TrkA and p75^NTR receptors. A COS7 (African green monkey kidney fibroblast) cell line was obtained from ATCC and cultured in Dulbecco's modified Eagle's medium (DMEM) supplemented with 10% fetal bovine serum, 50 U/ml penicillin, and 50 μg/ml streptomycin. The cells were maintained in a 37° C., 5% CO2, humidified incubator.
To determine the transfection efficiencies of our nucleic acid delivery systems, we employ a reporter plasmid, pCAGluc (a gift from Yoshiharu Matsuura, National Institute of Infectious Diseases, Tokyo, Japan), encoding firefly luciferase under the control of the composite promoter, CAG. CAG comprises the chicken β-actin promoter and the cytomegalovirus immediate early enhancer.
TrkA-targeting gene delivery complexes were tested for transfection efficiency in vitro in PC12 (TrkA and p75^NTR positive) cells and COS7 (neurotrophin receptor negative) cells. The cells were grown to 50–70% confluency in microplate wells (24-, 48-, or 96-well plates). The gene delivery complexes were prepared according to specifications presented for each example. Transfection was accomplished by replacing the serum-enriched medium with half the usual volume of reduced-serum medium, Opti-MEM (Invitrogen), containing the gene delivery complexes. Where specifically mentioned, 100 μM of chloroquine was also added to help the complexes escape from endosomes. After four hours of incubation, the cells were restored to the normal medium volume and serum concentration, either by topping up with medium containing twice the usual serum concentration (RPMI-1640 with 20% FBS and 10% horse serum for PC12) or by completely replacing the medium.
One to two days after transfection, the cell culture medium was removed and the cells were rinsed in phosphate-buffered saline (PBS). Enough Reporter Lysis Buffer (Promega, Wisconsin, Md., USA) to cover the bottom surface was added to each well (50 μl/well for 48-well plates). After one freeze-thaw cycle, the lysates were tested for luciferase activity using the Luciferase Assay System (Promega) and a single-tube luminometer (Berthold Lumat L B 9507, Bad Wildbad, Germany). The total protein concentration of each lysate was determined using the DC Protein assay (Bio-Rad, Hercules, Calif., USA). The results were expressed in relative light units (RLU) per milligram of total protein.

[2] = system: lumbar segment of the spinal cord; assay: Gene delivery in vivo, intrathecal injection, lumbar spinal cord; parameters: species or system rat; details: 3 μg pCAGluc, PEI600 N/P 5, peptide N/P 5, intralumbar, 3 days
Source text: In vivo gene delivery was studied by intrathecal injections of adult Wistar rats (8 weeks old, 180–200 g). The rats were anesthetized by intraperitoneal injection of sodium pentobarbital. After the skin around L4–L5 was exposed, the gene delivery complex was slowly injected into the subarachnoid space using a syringe. A slight tail movement accompanied correct placement of the needle. After injection, the syringe was left in place for five minutes to limit diffusion caused by backflow pressure. Multiple injections were sometimes required to deliver the full volume of the complex. After injection, the skin was closed with surgical clips and the animals were kept warm until they recovered. […] The lumbar segment of the spinal cord and the lumbar dorsal root ganglia were excised. The tissues were homogenized in 100–400 μl of Reporter Lysis Buffer (Promega) depending on size and subjected to three freeze-thaw cycles. The lysates were centrifuged at 14000 g for 5 min at 4° C. The supernatant was tested for luciferase activity using the Luciferase Assay System (Promega) in a single-tube luminometer (Berthold Lumat LB 9507). The readings were normalized by the total protein content of the lysates, as measured by the DC Protein assay (Bio-Rad).

primary glial cells = assay: Gene delivery to primary cultures of glial cells; assay type: cell-based, rat
Protocol: Primary cultures of glial cells were established from the cortices of 20-day old embryonic Wistar rats. Individual cells were collected as described above. The cells were plated at a density of 4×10^5 viable cells/cm^2 on poly-L-lysine/laminin coated dishes and grown to confluence for 7 days in DMEM/F12 medium supplemented with 10% FCS. The day before transfection, the cells were detached and plated into coated microplates at a density of 2.5×10^4 cells per well. Gene delivery complexes were also tested on primary cultures of cortical neurons and glial cells in a similar fashion. […] Four hours later, an equal volume of DMEM-F12/N2 was added. One to two days after transfection, the cell culture medium was removed and the cells were rinsed in phosphate-buffered saline (PBS). Enough Reporter Lysis Buffer (Promega, Wisconsin, Md., USA) to cover the bottom surface was added to each well (50 μl/well for 48-well plates). After one freeze-thaw cycle, the lysates were tested for luciferase activity using the Luciferase Assay System (Promega) and a single-tube luminometer (Berthold Lumat L B 9507, Bad Wildbad, Germany). The total protein concentration of each lysate was determined using the DC Protein assay (Bio-Rad, Hercules, Calif., USA). The results were expressed in relative light units (RLU) per milligram of total protein.

PC12 cells = assay: PC12 neurite outgrowth assay; assay type: cell-based, rat; details: 8 μM, 3 days
Protocol: Chimeric polypeptides were examined for their ability to induce neurite outgrowth in PC12 cells. Polypeptides in a range of concentrations were added to PC12 cells cultured in serum-enriched RPMI-1640 medium. The cells were incubated for three days and photographed every 24 h.

plasmid DNA [3] = assay: Atomic force microscopy of polypeptide-DNA complexes; assay type: physicochemical
Protocol: DNA samples, polypeptide-DNA complexes, and polypeptide-polycation-DNA complexes were prepared with a DNA concentration of 0.02 mg/ml. The samples were diluted ten-fold in HPLC-grade water, and 20 μl of each sample was deposited onto mica discs. After one minute, the mica discs were washed with HPLC-grade water and dried in a stream of filtered air. Images were acquired on a Nanoscope IIIa atomic force microscope (Digital Instruments, Santa Barbara, Calif., USA) operating in tapping mode in air, using Nanoprobe Silicon tips (Digital Instruments).

plasmid DNA [4] = assay: Ethidium bromide displacement assay; assay type: binding; details: 0.8 μg DNA pre-mixed with ethidium bromide
Protocol: In this assay, the quenching of the fluorescence of ethidium bromide intercalated in DNA is used to measure DNA-binding and condensing ability. Ethidium bromide (153 μl of a 0.01% solution) was added to 96 μg of plasmid DNA and diluted with water to a final volume of 6 ml. In wells of a 96-well microplate, various amounts of polypeptide were placed in a volume of 50 μl, to which 50 μl of the DNA-ethidium bromide solution was added. After five minutes of mixing, 100 μl of water was added. The fluorescence reading was taken using wavelengths of 485 nm for excitation and 593 nm for emission on a SPECTRAFluor Plus microplate reader (TECAN, Maennedorf, Switzerland).

Molecule	gene delivery at N/P ratio of 1 (in words) ([1]; 0.3 nmol peptide with 1 μg pCAGluc, 100 μM chloroquine)	transfection efficiency relative to a mixture of NL4 and 10K peptides ([1]; 1.5 nmol peptide per μg DNA (N/P ratio of 5), 100 μM chloroquine, 24 h)	dose-response of transfection efficiency with increasing amount of peptide ([1]; 1 μg pCAGluc/well, 100 μM chloroquine)	transfection in spinal cord near the lumbar injection site relative to 10K control [2]	difference between transfection efficiencies of NL4-10K and 10K (primary glial cells; peptide/DNA 0.75 nmol/μg (N/P ratio of 2.5), chloroquine)	neurite outgrowth (PC12 cells)	transfection efficiency of complexes of polypeptide and DNA alone ([1]; no polycation)	transgene expression relative to PEI600 alone ([1]; triple complexes with PEI600, highest amount of SPKR4NL1-2 tested)	transfection efficiency relative to PLL without SPKR4NL1-2 ([1]; triple complexes with poly-L-lysine (MW 1000), chloroquine, optimal amount of SPKR4NL1-2)	difference between SPKR4NL1-2 and (SPKR)4 triple complexes (primary glial cells; 0.25 μg/well pCAGluc, PEI600, 24 h)	DNA condensation seen by atomic force microscopy, with PEI600 (plasmid DNA [3]; PEI600 (N/P ratio of 5) added)	DNA condensation seen by atomic force microscopy, peptide alone (plasmid DNA [3]; peptide and plasmid DNA without polycation)	N/P ratio at which ethidium bromide fluorescence dropped sharply (DNA condensation) (plasmid DNA [4])
CTTTHTFVKALTMDGKQAAWRFIRIDTACKKKKKKKKKK (CTTTHTFVKALTMDGKQAAWRFIRIDTACKKKKKKKKKK; disulfide 1-29) [NL4-10K]	modest gene delivery	110 times	increased markedly	decreased relative to the 10K control	not significant	–	–	–	–	–	–	–	–
B1	–	–	–	–	–	promotes neurite outgrowth	relatively weak transfection efficiencies	5000 fold	1000 times	essentially no difference	compact nanoparticles are formed	only partially condenses plasmid DNA	about 10 N/P ratio

Reference: US7205387B2, “Recombinant polypeptide useful for neurotrophin receptor mediated gene delivery and as neurotrophin agonist” (Agency for Science, Technology and Research, priority 2003, dated 2007)
